This is an account of results in publication PMC3310434 (Tuberculosis (Edinburgh, Scotland), 2011).

Series [1] concerns the molecule itself. Briefly: crystal structure.
The target of series [2] is T1, VapC-3 toxin of Mtb VapBC-3 (Rv0300-Rv0301) (Mycobacterium tuberculosis, UniProt P9WFB9 2-141).
T1 sequence: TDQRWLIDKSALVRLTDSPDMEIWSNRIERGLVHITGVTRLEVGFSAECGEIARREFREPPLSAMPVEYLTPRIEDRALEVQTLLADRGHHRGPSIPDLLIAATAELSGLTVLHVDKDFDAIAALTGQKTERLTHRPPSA
The experiment in a line: crystal structure.

Series [3] deals with the molecule itself. Briefly: dynamic light scattering.
Series [4] concerns the molecule itself. Briefly: crystal structure. This is another data set of the same source.

B1: VapB-3 antitoxin of Mtb VapBC-3 (Rv0300-Rv0301) (natural protein)
chain: MSDVLIRDIPDDVLASLDAIAARLGLSRTEYIRRRLAQDAQTARVTVTAADLRRLRGAVAGLGDPELMRQAWR
For B1, the binding result in series [1] and in series [2] was “binds” throughout.

B2: Rv0812, putative Mtb 4-amino-4-deoxychorismate (ADC) lyase (PabC) (enzyme)
chain: MVVTLDGEILQPGMPLLHADDLAAVRGDGVFETLLVRDGRACLVEAHLQRLTQSARLMDLPEPDLPRWRRAVEVATQRWVASTADEGALRLIYSRGREGGSAPTAYVMVSPVPARVIGARRDGVSAITLDRGLPADGGDAMPWLIASAKTLSYAVNMAVLRHAARQGAGDVIFVSTDGYVLEGPRSTVVIATDGDQGGGNPCLLTPPPWYPILRGTTQQALFEVARAKGYDCDYRALRVADLFDSQGIWLVSSMTLAARVHTLDGRRLPRTPIAEVFAELVDAAIVSDR
One may read the stoichiometry N as a count of units in the complex or per binding partner. Turning to B2, in series [3], the “stoichiometry N” value worked out at 2.

B3: Mtb fumarase (enzyme)
chain: MAVDADSANYRIEHDTMGEVRVPAKALWRAQTQRAVENFPISGRGLERTQIRALGLLKGACAQVNSDLGLLAPEKADAIIAAAAEIADGQHDDQFPIDVFQTGSGTSSNMNTNEVIASIAAKGGVTLHPNDDVNMSQSSNDTFPTATHIAATEAAVAHLIPALQQLHDALAAKALDWHTVVKSGRTHLMDAVPVTLGQEFSGYARQIEAGIERVRACLPRLGELAIGGTAVGTGLNAPDDFGVRVVAVLVAQTGLSELRTAANSFEAQAARDGLVEASGALRTIAVSLTKIANDIRWMGSGPLTGLAEIQLPDLQPGSSIMPGKVNPVLPEAVTQVAAQVIGNDAAIAWGGANGAFELNVYIPMMARNILESFKLLTNVSRLFAQRCIAGLTANVEHLRRLAESSPSIVTPLNSAIGYEEAAAVAKQALKERKTIRQTVIDRGLIGDRLSIEDLDRRLDVLAMAKAEQLDSDRL
As to B3, in series [4], the “stoichiometry N” value amounted to 4.
